The RNAGym collection of RNA variant scans (doi:10.7554/elife.80360)

B1: Hairpin Ribozyme (parent)
chain: GUCCUCUUUCACGUGCGCGUGAAAGAGAGAAGUGAACCAGAGAAACACACGUUGUGGUAUAUUACCUGGUA

Variants of: B1
Assay: self-cleavage, relative activity (ratio to wild type); higher = more cleavage; co-transcriptional

First: G21A G56A
Second: G21A G56U
The self-cleavage of the first is higher: 0.19 for the first, 0.185 for the second.

Going from G21U A64G to G21U A64U, the self-cleavage falls from 0.573 to 0.113.

Going from G21A A49G to G21A A49C, the self-cleavage falls from 0.469 to 0.233.

Compared with A22G A36G, G21A C65A is higher in self-cleavage: 0.757 for the first, 0.861 for the second.

First: G21A C65G
Second: G21A C65U
The self-cleavage of the first is higher: 0.158 for the first, 0.147 for the second.

Compared with G21U G27U, G21A G32A is lower in self-cleavage: 0.253 for the first, 0.193 for the second.

Compared with G21A G32U, G21A G42U is higher in self-cleavage: 0.0748 for the first, 0.249 for the second.

Compared with G21A G42C, G21A G42A is lower in self-cleavage: 0.281 for the first, 0.218 for the second.

First: G21A C66U
Second: A22G A30G
The self-cleavage of the first is higher: 0.447 for the first, 0.0887 for the second.

First: A22G A30C
Second: A22G A30U
The self-cleavage of the first is higher: 0.182 for the first, 0.0767 for the second.

Going from A22C U58C to A22C A49U, the self-cleavage falls from 0.94 to 0.204.

Compared with G21A A45U, A22G A61U is lower in self-cleavage: 0.286 for the first, 0.159 for the second.

First: A22G A61C
Second: A22C C48A
The self-cleavage of the first is higher: 0.337 for the first, 0.291 for the second.

Going from A22C C48G to A22C C48U, the self-cleavage rises from 0.138 to 0.235.

Compared with G21A A35G, A22C G29C is lower in self-cleavage: 0.729 for the first, 0.0774 for the second.

Compared with G21A U62G, A22U A28C is higher in self-cleavage: 0.163 for the first, 0.561 for the second.

Compared with A22U A28U, A22U U70C is higher in self-cleavage: 0.67 for the first, 0.876 for the second.

Compared with A22C A41G, A23C G34A is higher in self-cleavage: 0.704 for the first, 1.1 for the second.

Going from A23C G34C to A23C G34U, the self-cleavage falls from 1.26 to 1.14.

First: G21U A49G
Second: G21C A26C
The self-cleavage of the first is higher: 0.408 for the first, 0.164 for the second.

Going from G21A A31U to G21U U63G, the self-cleavage rises from 0.0982 to 0.248.

Going from G21U U63C to G21C A39U, the self-cleavage rises from 0.122 to 0.46.

Going from G21C A39G to A23C C65G, the self-cleavage falls from 0.225 to 0.186.

Compared with G21C G32C, A22U A30C is higher in self-cleavage: 0.175 for the first, 0.223 for the second.

First: G21U G29C
Second: A22G U53A
The self-cleavage of the first is lower: 0.224 for the first, 0.926 for the second.

Compared with A22C A24G, A23C A30C is lower in self-cleavage: 0.717 for the first, 0.246 for the second.

Compared with G21U A28U, A22C G42A is lower in self-cleavage: 0.688 for the first, 0.146 for the second.

Going from A22C G42U to G21U U60C, the self-cleavage rises from 0.239 to 1.08.

Going from G21C A44U to G21A A30C, the self-cleavage rises from 0.0331 to 0.128.

First: A22C U63G
Second: A22C C38G
The self-cleavage of the first is lower: 0.109 for the first, 0.215 for the second.

First: A22C C38U
Second: A23C A35C
The self-cleavage of the first is lower: 0.552 for the first, 0.797 for the second.

First: A23C A35U
Second: G21C A71G
The self-cleavage of the first is lower: 0.559 for the first, 0.818 for the second.

First: G21C A43G
Second: G21C A43C
The self-cleavage of the first is lower: 0.104 for the first, 0.146 for the second.

Compared with A22C C65G, A22C C65U is higher in self-cleavage: 0.116 for the first, 0.303 for the second.

Going from A22C C65A to A22G C37A, the self-cleavage falls from 0.64 to 0.312.

First: A22G C37U
Second: A22C G56U
The self-cleavage of the first is higher: 0.646 for the first, 0.148 for the second.

Compared with A22C G56C, G21C A64U is lower in self-cleavage: 0.243 for the first, 0.0998 for the second.

Going from G21C A64C to G21A A47U, the self-cleavage rises from 0.154 to 0.162.

Going from G21C G68A to G21C G68C, the self-cleavage falls from 0.321 to 0.155.

First: A23C A41C
Second: A23C A41U
The self-cleavage of the first is higher: 0.948 for the first, 0.911 for the second.

First: A22C G68U
Second: A22C G68A
The self-cleavage of the first is higher: 0.262 for the first, 0.165 for the second.

First: A23C A36G
Second: A22U G51C
The self-cleavage of the first is higher: 1.08 for the first, 0.607 for the second.

Compared with A22U G51U, G21C U53C is higher in self-cleavage: 0.761 for the first, 0.953 for the second.

Going from A22G G27A to A22U C38G, the self-cleavage falls from 0.522 to 0.184.

Compared with G21A A36C, G21A A36U is lower in self-cleavage: 0.605 for the first, 0.503 for the second.

First: G21U A47G
Second: G21C A35U
The self-cleavage of the first is lower: 0.208 for the first, 0.751 for the second.

First: G21C G27C
Second: G21A G34A
The self-cleavage of the first is lower: 0.134 for the first, 0.968 for the second.

First: G21C U63C
Second: G21C G40U
The self-cleavage of the first is higher: 0.196 for the first, 0.17 for the second.

Going from G21C G40C to A22C A30C, the self-cleavage rises from 0.0941 to 0.16.

First: G21U G34A
Second: G21A A71G
The self-cleavage of the first is higher: 1.01 for the first, 0.854 for the second.

First: G21A A71C
Second: G21C G54A
The self-cleavage of the first is higher: 1.23 for the first, 0.392 for the second.

Going from G21C G54U to G21U A24C, the self-cleavage falls from 0.511 to 0.481.

First: G21C G69C
Second: A22C C66U
The self-cleavage of the first is lower: 0.265 for the first, 0.649 for the second.

Compared with A22C C66A, G21C C38A is lower in self-cleavage: 0.216 for the first, 0.18 for the second.

Going from A22G U70G to A22G U70A, the self-cleavage rises from 0.658 to 0.81.

Compared with A23C A59U, A22U G57U is higher in self-cleavage: 0.174 for the first, 0.366 for the second.

First: A22C G25A
Second: A22G G29U
The self-cleavage of the first is higher: 0.247 for the first, 0.0873 for the second.

Compared with A22G G29A, A22C U33A is lower in self-cleavage: 0.121 for the first, 0.0448 for the second.

First: A22C U33C
Second: A22U A43U
The self-cleavage of the first is higher: 0.155 for the first, 0.136 for the second.

Compared with A22U A43C, A22U U58G is higher in self-cleavage: 0.178 for the first, 0.769 for the second.

Going from A22U U58A to G21C G34C, the self-cleavage rises from 0.589 to 0.992.

Going from G21C G34U to G21C A61C, the self-cleavage falls from 1.12 to 0.151.

Compared with A23C A45C, G21A C50U is higher in self-cleavage: 0.0875 for the first, 0.371 for the second.

First: G21U U53A
Second: A22G C50G
The self-cleavage of the first is higher: 0.836 for the first, 0.42 for the second.

Going from A22G C50U to G21A U55A, the self-cleavage falls from 0.362 to 0.177.

First: G21C A28U
Second: A22G C48U
The self-cleavage of the first is higher: 0.31 for the first, 0.149 for the second.

First: A22G G56U
Second: A22G G56A
The self-cleavage of the first is lower: 0.0693 for the first, 0.185 for the second.

Going from G21U A44G to G21U A44C, the self-cleavage rises from 0.0823 to 0.117.

First: A22C C46A
Second: A22C U60G
The self-cleavage of the first is lower: 0.183 for the first, 0.484 for the second.

Compared with A22C U60C, A22C U60A is lower in self-cleavage: 1.16 for the first, 0.664 for the second.

Compared with G21A U58G, A22G G25A is higher in self-cleavage: 0.554 for the first, 0.623 for the second.

First: A22G G25U
Second: A22G A24G
The self-cleavage of the first is lower: 0.595 for the first, 0.808 for the second.

First: A22G A24U
Second: A22U U53G
The self-cleavage of the first is higher: 1.08 for the first, 0.817 for the second.

Compared with A22C G54U, A22C G54A is higher in self-cleavage: 0.514 for the first, 0.587 for the second.

Compared with A22G U58G, A22G U58C is higher in self-cleavage: 0.528 for the first, 0.954 for the second.

First: A22C U53C
Second: A22C U53A
The self-cleavage of the first is higher: 1.03 for the first, 0.81 for the second.

First: A22C U53G
Second: G21A G29C
The self-cleavage of the first is higher: 0.822 for the first, 0.168 for the second.

First: G21C G51A
Second: A23C A49C
The self-cleavage of the first is higher: 0.914 for the first, 0.136 for the second.

Going from G21U U58C to G21U U58G, the self-cleavage falls from 0.84 to 0.585.

First: G21A G69A
Second: A22G A23U
The self-cleavage of the first is lower: 0.382 for the first, 0.59 for the second.

Going from A22G A23C to G21C U60A, the self-cleavage falls from 0.915 to 0.744.

Going from G21C U60C to A23C C66G, the self-cleavage falls from 0.851 to 0.166.

First: A22G A59U
Second: A22G A44C
The self-cleavage of the first is lower: 0.0393 for the first, 0.136 for the second.

With G21A A28G the self-cleavage was 0.979.
